Measured values from doi:10.1101/2024.10.07.617049 (bioRxiv, 2024).
Numbering of substitutions follows the chain as printed. In names and notes the source's numbering stands.

B1: ASB8^ΔN16 (domain or fragment)
chain: SLSERLIRTIAAIRSFPHDNVEDLIRGGADVNCTHGTLKPLHCACMVSDADCVELLLEKGAEVNALDGYNRTALHYAAEKDEACVEVLLEYGANPNALDGNRDTPLHWAAFKNNAECVRALLESGASVNALDYNNDTPLSWAAMKGNLESVSILLDYGAEVRVINLIGQTPISRLVALLVRGLGTEKEDSCFELLHRAVGHFELRKNGTMPREVARDPQLCEKLTVLCSAPGTLKTLARYAVRRSLGLQYLPDAVKGLPLPASLKEYLLLLE
B2: ASB8^ΔN16•ELOB/C (complex)
chain 1: B1 chain
chain 2: […]
chain 3: […]
B3: ASB8^ΔN16/R197A (domain or fragment)
chain: B1 chain with R181A
B4: ASB8^ΔN16/R197A•ELOB/C (complex)
chain 1: B1 chain with R181A
chain 2: […]
chain 3: […]

Tests used:
KPT-127-conjugated XPO1 = KPT-127-conjugated XPO1 (human, UniProt O14980 1-1071, Cys528 covalently conjugated to KPT-127); test: cryo-EM structure
Chain of KPT-127-conjugated XPO1 (O14980 whole entry): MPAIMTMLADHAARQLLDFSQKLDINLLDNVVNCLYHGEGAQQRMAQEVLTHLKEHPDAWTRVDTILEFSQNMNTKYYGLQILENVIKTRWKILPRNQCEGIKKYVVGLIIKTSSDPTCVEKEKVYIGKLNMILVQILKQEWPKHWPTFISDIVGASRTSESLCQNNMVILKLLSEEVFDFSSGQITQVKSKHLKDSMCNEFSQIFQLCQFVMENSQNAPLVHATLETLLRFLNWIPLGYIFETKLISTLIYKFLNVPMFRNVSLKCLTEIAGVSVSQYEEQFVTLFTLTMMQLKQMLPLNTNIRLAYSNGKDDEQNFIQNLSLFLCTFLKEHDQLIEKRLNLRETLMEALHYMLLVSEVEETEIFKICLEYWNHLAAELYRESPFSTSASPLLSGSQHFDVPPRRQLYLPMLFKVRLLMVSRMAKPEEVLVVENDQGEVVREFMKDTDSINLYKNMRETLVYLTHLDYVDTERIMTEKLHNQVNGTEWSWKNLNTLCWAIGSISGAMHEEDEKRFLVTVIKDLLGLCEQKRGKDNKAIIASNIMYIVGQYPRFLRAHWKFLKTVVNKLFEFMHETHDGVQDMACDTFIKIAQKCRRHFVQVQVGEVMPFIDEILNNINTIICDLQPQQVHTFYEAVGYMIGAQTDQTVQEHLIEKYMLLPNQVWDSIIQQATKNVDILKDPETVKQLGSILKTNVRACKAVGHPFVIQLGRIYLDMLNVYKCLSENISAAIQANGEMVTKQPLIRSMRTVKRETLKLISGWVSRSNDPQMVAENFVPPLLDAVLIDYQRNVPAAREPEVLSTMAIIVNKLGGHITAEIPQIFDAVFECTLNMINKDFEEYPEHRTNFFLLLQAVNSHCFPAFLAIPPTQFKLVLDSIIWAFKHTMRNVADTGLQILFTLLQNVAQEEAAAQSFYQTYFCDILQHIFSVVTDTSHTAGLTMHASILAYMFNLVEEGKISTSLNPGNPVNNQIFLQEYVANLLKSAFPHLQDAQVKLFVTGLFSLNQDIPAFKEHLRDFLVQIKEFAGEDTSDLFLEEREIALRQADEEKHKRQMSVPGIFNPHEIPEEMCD

KPT-185-conjugated XPO1 = KPT-185-conjugated XPO1 (human, UniProt O14980 1-1071, Cys528 covalently conjugated to KPT-185); test: cryo-EM structure
Chain of KPT-185-conjugated XPO1 (O14980 whole entry): as above

[1] = molecular target: T1, selinexor-conjugated XPO1 (human, UniProt O14980 1-1071, Cys528 covalently conjugated to selinexor (KPT-330)); test: cryo-EM structure
T1 sequence (O14980 whole entry): as above

[2] = molecular target: KPT-UTSW1-conjugated XPO1 (human, UniProt O14980 1-1071); test: cryo-EM structure
Chain of KPT-UTSW1-conjugated XPO1 (O14980 whole entry): as above

[3] = molecular target: exportin 1 (XPO1), unliganded (human, UniProt O14980 1-1071); test: ITC
Chain of exportin 1 (XPO1), unliganded (O14980 whole entry): as above

[4] = molecular target: T1, selinexor-conjugated XPO1; test: ITC

Binder	binding result [1]	Kd [4] [µM]	also measured
B1	binds	–	binding result (KPT-127-conjugated XPO1): binds; binding result (KPT-185-conjugated XPO1): binds; binding result [2]: binds
B2	–	0.029	Kd [3]: 11 µM
B3	binds	–	–
B4	–	0.058	–
